This is an account of results in US20030100492A1, “Proteoglycans and pharmaceutical compositions comprising them” (published 2003).

Assay [1] concerns the target Soluble FGFR2-alkaline phosphatase fusion protein (FR2-AP) (human) (UniProt P05187). The experiment in a line: FGF on Syn4-Fc, FGFR-AP; alkaline phosphatase activity and cross-linking of the receptors to radio-labeled bFGF.
The target of assay [2] is Recombinant human FGF2 (human, UniProt P09038, 125I label in the FIG. 1 assay and in the FGFR2-AP direct binding assay). In words: immunoprecipitation with anti-P710, incubation with 50 ng FGF2, FB-8 immunoblot. In general terms: In western blotting, separated proteins are transferred to a membrane and probed.

“Recombinant human FGF2 (from UniProt P09038) (ligand)” returned a fold less than with FGFR1 in assay [1] of 2 fold less.

B1: Mouse syndecan-4 (full length) overexpressed in CHO-KI cells (other)
chain: ESIRETEVIDPQDLLEGRYFSGALPDDEDAGGSDDFELSGSGDLDDTEEPRPFPEVIEPLVPLDNHIPENAQPGIRVPSEPKELEENEVIPKRAPSDVGDDMSNKVSMSSTVQGSNIFERTEVLAALIVGGVVGILFAVFLILLLVYRMKKKDEGSYDLGKKPIYKKAPTNEFYA
modifications: heparan sulfate chains
In the case of B1, in assay [2], the “fold more FGF2 bound than syndecan-4 from the CHO-KI parental cells” value was approximately 3 fold.
